From the RNAGym collection of RNA variant scans (doi:10.7554/elife.80360)

B1: Twister Ribozyme (parent)
chain: AACACUGCCAAUGCCGGUCCCAAGCCCGGAUAAAAGUGGAGGGGGCGG

Variants of: B1
Test: self-cleavage, relative activity (ratio to wild type); higher = more cleavage; co-transcriptional

Variant | self-cleavage
AACACUGCCAAUGCCGGUCCCAAGCCCGGAAAAAAGUGGAGGGGCCGG [U31A G45C] | 0.347
AACACUGCCAAUGCCGGUCCCAAGCCCGGACAUAAGUGGAGGGGGCGG [U31C A33U] | 1.08
AACACUGCCAAUGCCGGUCCCAAGCCCGGACAGAAGUGGAGGGGGCGG [U31C A33G] | 0.891
AACACUGCCAAUGCCGGUCCCAAGCCCGGAAAAAAGUGGAGGGGGCCG [U31A G47C] | 0.391
AACACUGCCAAUGCCGGUCCCAAGCCCGGAAAAAAGUGGAGGGGGCAG [U31A G47A] | 0.628
AACACUGCCAAUGCCGGUCCCAAGCCCGGAAAAAAGUGGAGGGGGCUG [U31A G47U] | 0.621
AACACUGCCAAUGCCGGUCCCAAGCCCGGAGAAAAGUGGAGGGUGCGG [U31G G44U] | 0.882
AACACUGCCAAUGCCGGUCCCAAGCCCGGAAACAAGUGGAGGGGGCGG [U31A A33C] | 0.833
AACACUGCCAAUGCCGGUCCCAAGCCCGGAGAAAAGUGGAGGGGGCGC [U31G G48C] | 1.19
AACACUGCCAAUGCCGGUCCCAAGCCCGGAGAGAAGUGGAGGGGGCGG [U31G A33G] | 1.02
AACACUGCCAAUGCCGGUCCCAAGCCCGGAAAAAAGUGGAGGUGGCGG [U31A G43U] | 0.233
AACACUGCCAAUGCCGGUCCCAAGCCCGGAAAAAAGUGGAGGCGGCGG [U31A G43C] | 0.168
AACACUGCCAAUGCCGGUCCCAAGCCCGGAAAAAAGUGGAGGAGGCGG [U31A G43A] | 0.23
AACACUGCCAAUGCCGGUCCCAAGCCCGGUUAAAAGUGGAGGGUGCGG [A30U G44U] | 0.973
AACACUGCCAAUGCCGGUCCCAAGCCCGGUUAAAAGUGGAGGUGGCGG [A30U G43U] | 0.558
AACACUGCCAAUGCCGGUCCCAAGCCCGGUUAAAAGUGGAGGCGGCGG [A30U G43C] | 0.229
AACACUGCCAAUGCCGGUCCCAAGCCCGGAGUAAAGUGGAGGGGGCGG [U31G A32U] | 0.765
AACACUGCCAAUGCCGGUCCCAAGCCCGGACAAUAGUGGAGGGGGCGG [U31C A34U] | 0.739
AACACUGCCAAUGCCGGUCCCAAGCCCGGACAACAGUGGAGGGGGCGG [U31C A34C] | 0.196
AACACUGCCAAUGCCGGUCCCAAGCCCGGUUAAAAGUGGAGCGGGCGG [A30U G42C] | 0.501
AACACUGCCAAUGCCGGUCCCAAGCCCGGUUAAAAGUGGAGUGGGCGG [A30U G42U] | 0.434
AACACUGCCAAUGCCGGUCCCAAGCCCGGUUAAAAGUGGAGGGGGUGG [A30U C46U] | 0.968
AACACUGCCAAUGCCGGUCCCAAGCCCGGAGAAAAGUGGACGGGGCGG [U31G G41C] | 0.278
AACACUGCCAAUGCCGGUCCCAAGCCCGGAGAAAAGUGGAUGGGGCGG [U31G G41U] | 0.763
AACACUGCCAAUGCCGGUCCCAAGCCCGGAAAAAAGUGGAGUGGGCGG [U31A G42U] | 0.341
AACACUGCCAAUGCCGGUCCCAAGCCCGGACAAAAGUGGAGAGGGCGG [U31C G42A] | 0.363
AACACUGCCAAUGCCGGUCCCAAGCCCGGACAAAAGUGGAGCGGGCGG [U31C G42C] | 0.413

Variant | self-cleavage
AACACUGCCAAUGCCGGUCCCAAGCCCGGGUAAAAGUGGAGGCGGCGG [A30G G43C] | 0.225
AACACUGCCAAUGCCGGUCCCAAGCCCGGAGAACAGUGGAGGGGGCGG [U31G A34C] | 0.477
AACACUGCCAAUGCCGGUCCCAAGCCCGGUUAAAAGUCGAGGGGGCGG [A30U G38C] | 0.88
AACACUGCCAAUGCCGGUCCCAAGCCCGGUUAAAAGUUGAGGGGGCGG [A30U G38U] | 0.957
AACACUGCCAAUGCCGGUCCCAAGCCCGGAGAAAAGUGGAGGGGGAGG [U31G C46A] | 1.1
AACACUGCCAAUGCCGGUCCCAAGCCCGGACAAAAGUGGAGGUGGCGG [U31C G43U] | 0.537
AACACUGCCAAUGCCGGUCCCAAGCCCGGUUGAAAGUGGAGGGGGCGG [A30U A32G] | 0.928
AACACUGCCAAUGCCGGUCCCAAGCCCGGACAAAAGUGGUGGGGGCGG [U31C A40U] | 0.149
AACACUGCCAAUGCCGGUCCCAAGCCCGGUUAAAACUGGAGGGGGCGG [A30U G36C] | 0.559
AACACUGCCAAUGCCGGUCCCAAGCCCGGGUAAAAGGGGAGGGGGCGG [A30G U37G] | 0.92
AACACUGCCAAUGCCGGUCCCAAGCCCGGAAAAAAGUGGCGGGGGCGG [U31A A40C] | 0.207
AACACUGCCAAUGCCGGUCCCAAGCCCGGACAAAAGUGGAGGGGGCGC [U31C G48C] | 1.2
AACACUGCCAAUGCCGGUCCCAAGCCCGGACAAAAGUGGAGGGGGCGA [U31C G48A] | 0.901
AACACUGCCAAUGCCGGUCCCAAGCCCGGUUAAAAGUGGAGGGGGCCG [A30U G47C] | 0.669
AACACUGCCAAUGCCGGUCCCAAGCCCGGGUAAAAGUGGAGGGAGCGG [A30G G44A] | 0.85
AACACUGCCAAUGCCGGUCCCAAGCCCGGAGAAAAGUGGAGUGGGCGG [U31G G42U] | 0.447
AACACUGCCAAUGCCGGUCCCAAGCCCGGACAAAAGCGGAGGGGGCGG [U31C U37C] | 0.587
AACACUGCCAAUGCCGGUCCCAAGCCCGGACAAAAGAGGAGGGGGCGG [U31C U37A] | 0.892
AACACUGCCAAUGCCGGUCCCAAGCCCGGACAAAAGGGGAGGGGGCGG [U31C U37G] | 1
AACACUGCCAAUGCCGGUCCCAAGCCCGGAGAAAAGGGGAGGGGGCGG [U31G U37G] | 0.734
AACACUGCCAAUGCCGGUCCCAAGCCCGGUUAAAAGUGGAAGGGGCGG [A30U G41A] | 0.621
AACACUGCCAAUGCCGGUCCCAAGCCCGGAAAAAAGUGCAGGGGGCGG [U31A G39C] | 0.151
AACACUGCCAAUGCCGGUCCCAAGCCCGGAAAAAAGUGAAGGGGGCGG [U31A G39A] | 0.343
AACACUGCCAAUGCCGGUCCCAAGCCCGGAAAAAAGUGGAAGGGGCGG [U31A G41A] | 0.452
AACACUGCCAAUGCCGGUCCCAAGCCCGGAAAAAAGUGGACGGGGCGG [U31A G41C] | 0.266
AACACUGCCAAUGCCGGUCCCAAGCCCGGUUAAAAGUGGGGGGGGCGG [A30U A40G] | 0.165
AACACUGCCAAUGCCGGUCCCAAGCCCGGUUAAAAGUGGCGGGGGCGG [A30U A40C] | 0.2
